{
  "source": "the MegaScale stability set (Tsuboyama et al. 2023)",
  "parents": {"B1": {"name": "EHEE_rd2_1257 (parent)", "chain": "EEERTFTNEEEARKAKKEAEKRGLRVTVTKDGTTWRVRIG"}, "B2": {"name": "EEHEE_rd4_0763 (parent)", "chain": "LTVHVGNVTYHFDNPEQAEEWAKRMAKKYQGQIHVKDGQFRIE"}},
  "data": [
    {"variants_of": "B1", "test": "folding stability dG (cDNA display proteolysis); higher = more stable", "details": "PBS, room temperature", "units": {"folding stability dG": "kcal/mol"}, "values": [
      {"variant": "EEERTFTIEEEARKAKKEAEKRGLRVTVTKDGTTWRVRIG", "note": "[N8I]", "folding stability dG": 1.39},
      {"variant": "EWERTFTNEEEARKAKKEAEKRGLRVTVTKDGTTWRVRIG", "note": "[E2W]", "folding stability dG": 2.86},
      {"variant": "ELERTFTNEEEARKAKKEAEKRGLRVTVTKDGTTWRVRIG", "note": "[E2L]", "folding stability dG": 2.26},
      {"variant": "EEERTFTNEEEASKAKKEAEKRGLRVTVTKDGTTWRVRIG", "note": "[R13S]", "folding stability dG": 1.82},
      {"variant": "EEERTFTNEEEAQKAKKEAEKRGLRVTVTKDGTTWRVRIG", "note": "[R13Q]", "folding stability dG": 2.32},
      {"variant": "EEERTFTNEEEADKAKKEAEKRGLRVTVTKDGTTWRVRIG", "note": "[R13D]", "folding stability dG": 1.98},
      {"variant": "EEERTFTNEEEARKAKKEAEKRGLRVTVTKDGLTWRVRIG", "note": "[T33L]", "folding stability dG": 2.12},
      {"variant": "EEERTFTNEEEARKAKKEAEKRGLRVTVTKDGETWRVRIG", "note": "[T33E]", "folding stability dG": 2.77},
      {"variant": "EEERTFTNEEEARKAKKEAEKRGLRVTVTKDGTTRRVRIG", "note": "[W35R]", "folding stability dG": 0.023},
      {"variant": "EEERTFTNEEEARKAKKEAEKRYLRVTVTKDGTTWRVRIG", "note": "[G23Y]", "folding stability dG": 0.68},
      {"variant": "EEERTFTNEEEARKAKKEAEKRDLRVTVTKDGTTWRVRIG", "note": "[G23D]", "folding stability dG": -0.065},
      {"variant": "EEERTFTNEEEARKAKKEAEKRLLRVTVTKDGTTWRVRIG", "note": "[G23L]", "folding stability dG": 0.537},
      {"variant": "EEERTFTNEEEARKAEKEAEKRGLRVTVTKDGTTWRVRIG", "note": "[K16E]", "folding stability dG": 2.31},
      {"variant": "EEERTFTNEEEARKARKEAEKRGLRVTVTKDGTTWRVRIG", "note": "[K16R]", "folding stability dG": 1.75},
      {"variant": "EEERTFTNEEEARKAYKEAEKRGLRVTVTKDGTTWRVRIG", "note": "[K16Y]", "folding stability dG": 2.2},
      {"variant": "EEERTFTNEEEARKAAKEAEKRGLRVTVTKDGTTWRVRIG", "note": "[K16A]", "folding stability dG": 3.56},
      {"variant": "EEERTFTNEEEARKAWKEAEKRGLRVTVTKDGTTWRVRIG", "note": "[K16W]", "folding stability dG": 2.37},
      {"variant": "EEERTFTNEEEARKAKKEAEKRGLTVTVTKDGTTWRVRIG", "note": "[R25T]", "folding stability dG": 1.9},
      {"variant": "EEERTFTNEEEARKAKKEAEKRGLPVTVTKDGTTWRVRIG", "note": "[R25P]", "folding stability dG": 1.47},
      {"variant": "EEERTFTNEEEARKAKKEAEKRGLRVTVTKDGTTWRVRIA", "note": "[G40A]", "folding stability dG": 2.19},
      {"variant": "EEERTFTNEEEARKAKKEAEKRGLRVTVTKDGTTWRVRIN", "note": "[G40N]", "folding stability dG": 2.07},
      {"variant": "EEERTFVNEEEARKAKKEAEKRGLRVTVTKDGTTWRVRIG", "note": "[T7V]", "folding stability dG": 1.7},
      {"variant": "EEERTFKNEEEARKAKKEAEKRGLRVTVTKDGTTWRVRIG", "note": "[T7K]", "folding stability dG": 1.63},
      {"variant": "PEERTFTNEEEARKAKKEAEKRGLRVTVTKDGTTWRVRIG", "note": "[E1P]", "folding stability dG": 2.07},
      {"variant": "IEERTFTNEEEARKAKKEAEKRGLRVTVTKDGTTWRVRIG", "note": "[E1I]", "folding stability dG": 2.74},
      {"variant": "EEERTFTNEEEARKAKKEAEKRGLRVTVTKDGTTWRVSIG", "note": "[R38S]", "folding stability dG": 1.93},
      {"variant": "EEERTFTNEEEARKAKKEAEKRGLRVTVIKDGTTWRVRIG", "note": "[T29I]", "folding stability dG": 2.36},
      {"variant": "EEERTFTNEEEARKAKKEAEKRGLRVTVEKDGTTWRVRIG", "note": "[T29E]", "folding stability dG": 1.87},
      {"variant": "EEERTFTNEEEARKAKKEAEKRGLRVTVTKDGTTWRVRQG", "note": "[I39Q]", "folding stability dG": 0.241},
      {"variant": "EEERTFTNEEEARKAKKEAEKRGLRVTVTKDGTTWRVREG", "note": "[I39E]", "folding stability dG": 0.258},
      {"variant": "EEERTFTNEEEARKQKKEAEKRGLRVTVTKDGTTWRVRIG", "note": "[A15Q]", "folding stability dG": 0.698},
      {"variant": "EEERTFTNEEEARKAKKEAEKRGLRMTVTKDGTTWRVRIG", "note": "[V26M]", "folding stability dG": 0.445},
      {"variant": "EEERTFTNEEEARKAKKEAEKRGLRVTLTKDGTTWRVRIG", "note": "[V28L]", "folding stability dG": 2.58},
      {"variant": "EEERTFTNEEEARKAKKEAEKRGLRVTVTKDGTWWRVRIG", "note": "[T34W]", "folding stability dG": 2.08},
      {"variant": "EEERTFTNEEKARKAKKEAEKRGLRVTVTKDGTTWRVRIG", "note": "[E11K]", "folding stability dG": 0.826},
      {"variant": "EEERTFTNEEWARKAKKEAEKRGLRVTVTKDGTTWRVRIG", "note": "[E11W]", "folding stability dG": 1.07},
      {"variant": "EEERTFTNEEEARKAKKEARKRGLRVTVTKDGTTWRVRIG", "note": "[E20R]", "folding stability dG": 1.11},
      {"variant": "EEERTFTNEEEARKAKKEAEKRGLRVTVTKDGTTWAVRIG", "note": "[R36A]", "folding stability dG": 0.9},
      {"variant": "EEERTFTNEEEARKAKKEAEKRGLRVTVTKDGTTWNVRIG", "note": "[R36N]", "folding stability dG": 1.12},
      {"variant": "EEERTFTNEEEARKAKKEAEKRGLRVTVTKDGTTWLVRIG", "note": "[R36L]", "folding stability dG": 2.15},
      {"variant": "EEERTFTNEEEARKAKAEAEKRGLRVTVTKDGTTWRVRIG", "note": "[K17A]", "folding stability dG": 2.47},
      {"variant": "EEERTFTNEEEARKAKIEAEKRGLRVTVTKDGTTWRVRIG", "note": "[K17I]", "folding stability dG": 2.5},
      {"variant": "EEERTFTNEEEARKAKWEAEKRGLRVTVTKDGTTWRVRIG", "note": "[K17W]", "folding stability dG": 2.39},
      {"variant": "EEERTFTNEEEMRKAKKEAEKRGLRVTVTKDGTTWRVRIG", "note": "[A12M]", "folding stability dG": 2.08},
      {"variant": "EEERTFTNEEEARKAKKFAEKRGLRVTVTKDGTTWRVRIG", "note": "[E18F]", "folding stability dG": 1.56},
      {"variant": "EEERTFTNEEEARKAKKLAEKRGLRVTVTKDGTTWRVRIG", "note": "[E18L]", "folding stability dG": 1.64},
      {"variant": "EEERTFTNEEEARKAKKNAEKRGLRVTVTKDGTTWRVRIG", "note": "[E18N]", "folding stability dG": 1.48},
      {"variant": "EEERTFTNEEEARKAKKQAEKRGLRVTVTKDGTTWRVRIG", "note": "[E18Q]", "folding stability dG": 1.64},
      {"variant": "EEERTFTNEEEARKAKKEAEKRGLRVTVTGDGTTWRVRIG", "note": "[K30G]", "folding stability dG": 1.32},
      {"variant": "EEERTFTNEEEARKAKKEAEKRGLRVTVTHDGTTWRVRIG", "note": "[K30H]", "folding stability dG": 2.22},
      {"variant": "EEERTFTNEEEARKAKKEAEKRGLRVTVTDDGTTWRVRIG", "note": "[K30D]", "folding stability dG": 1.24},
      {"variant": "EEERTFTNEEEARKAKKEAEKQGLRVTVTKDGTTWRVRIG", "note": "[R22Q]", "folding stability dG": 1.88},
      {"variant": "EEERTFTNEEEARKAKKEAEKPGLRVTVTKDGTTWRVRIG", "note": "[R22P]", "folding stability dG": -0.245},
      {"variant": "EEERTFTNEEEARKAKKEAEKYGLRVTVTKDGTTWRVRIG", "note": "[R22Y]", "folding stability dG": 1.69},
      {"variant": "EEERTFTNEEEARKAKKEDEKRGLRVTVTKDGTTWRVRIG", "note": "[A19D]", "folding stability dG": -0.295},
      {"variant": "EEERTFTNEHEARKAKKEAEKRGLRVTVTKDGTTWRVRIG", "note": "[E10H]", "folding stability dG": 1.96},
      {"variant": "EEERTFTNEEEARKAKKEAEQRGLRVTVTKDGTTWRVRIG", "note": "[K21Q]", "folding stability dG": 2.17},
      {"variant": "EEEPTFTNEEEARKAKKEAEKRGLRVTVTKDGTTWRVRIG", "note": "[R4P]", "folding stability dG": 0.462},
      {"variant": "EEEGTFTNEEEARKAKKEAEKRGLRVTVTKDGTTWRVRIG", "note": "[R4G]", "folding stability dG": 1.14}
    ]},
    {"variants_of": "B2", "test": "folding stability dG (cDNA display proteolysis); higher = more stable", "details": "PBS, room temperature", "units": {"folding stability dG": "kcal/mol"}, "values": [
      {"variant": "LTVHHGNVTYHFDNPEQAEEWAKRMAKKYQGQIHVKDGQFRIE", "note": "[V5H]", "folding stability dG": 1.26},
      {"variant": "LTVHVGNVTYHFDNPEQAEEWAKVMAKKYQGQIHVKDGQFRIE", "note": "[R24V]", "folding stability dG": 1.58}
    ]}
  ]
}
